Data taken from the DeepSol protein solubility set.

Assay: soluble on expression in E. coli; label from the status in PepcDB or PDB records

## MAGEKFQKKGKEKWKEKVWYTVEAPPYLGSKEVSVALGEDSNSMVNRVVEVPISELTGNFKKSNEKALFRITNCEGTKCKTIFIGHYIGDDYIRRLVRRRKERIDIIEDVKTSDNSIITVKIVVVTDGKVTNTKKFQIRKVLTDFILNKGLSLPYSEFVRYLIGDDIYNDMISATKDIYPLKKIEVRKSELVSLSGISEIHAGSQLEHHHHHH
  soluble on expression in E. coli: soluble

## MASSTSLAIVLHQSSNHDELFMKQTLQFSETLKDLKNLRKQLYSAAEYFETSYGKAEHKETVIETLKEYAAKAVVNTVDHLGSVSDKFNSFLSDNSTHFSTTHLRLSSLEQRMRLCRDYMGKSGTHQHLLLFQYPRHHKRYFFPQQGRGTSFSAGDDSHRFTSAVRSTILENLPNTARKANKTGSFSFAPIVHNNINNRTPNKRSNSPMRFPLLRSGSLLKRSSSPSQPKKPPLALPEPQRAISVSRNTEIVEIKQSSSRKGKKILMFKALMSMSKSRN
  soluble on expression in E. coli: soluble

## MKFNSMFSPIDIGPMKVPNRFVVSPMCNNYANTDGTLSDTSLAYYKERALGGFGLITFEATVVDVRAKGGANKACLYSDHQIASFKRVIDVCHDAGAKISVQLQHAGPEGNSKVSGYPLRAASAIASAAGRNTPEAISREELYELIELYGEAALRAKKAGADAVEVHCAHGYLVSSFLSARTNKRVDEFGGCFENRMRLPRLIIESIRKRVGHSIAILCRINSTDGVDGGLSVQDSATVAAYLEDCGLDGLHVSRSVHIRDEYMWAPTVLHAGFSSDLVTQIKRAVSIPVITVGRFTEPHYAELMVREGRADLVAFGRQSLADPETPNKAAAGKLDELLPCIACLQGCVANMYAGKPITCLVNPLLGRESEAYLPKTPSKKVVVVGGGVGGLYAGWMAGSRGHDVTVYEASDMIGGQMRLAAYPPGKGDLTNMVRSYIKKCEQFDVEIKTNTPVTLELIQEVAPDAVIIATGATPLVLPIPGIEDAGLIHAVDLLDGKEKCGQKVLVVGGGMVGSETAAFLGEAGHDVTVVELRDEVGADVISEHRKFLMHDFDEYKIKSVTNAKVTSFFEDGVTYSLADNKEQRIDGFDSVVLAMGSRAYNPLEEAIKAIVPETYVIGDAVRARRALDATKEALDAVLQL
  soluble on expression in E. coli: not soluble

## MQEDDSVKPFQTVGAHRDLIHCVSFDPHGRRMATCASDMTMAIWDRKPDGNWRRSAHWKCHGGAVWRVIWAHPEFGQIVATCSYDRTIVIWEEQIVRSEKDLKQKESQWIRRTIISDNRSDVTDICFSPRHLGLMMASCNVLGTVRIYEAPDIVDASRWNLIHELQAFHTRCGCVTWSLSRMHRPLIAVGSDEKKAENKKRVVIYENIDGLRKWQRINSLVFDLPCPITDLKFSPISMVDSHQLAVASGDVHVYNIKVARSAILEEDGVENPIQLADYNLIKVALLGDHRKAWRLRYNLMGSVISSTSLDGTLRSWKSLFVNQWVKLSEMNVDDYVPSPEEVRAFISSKTTERLPSQLEKTYF
  soluble on expression in E. coli: not soluble

## MVNTLAFEYSYKALIVYCRINNNNFSLVKLKSNLNFSVPKIFNDFVIKNNIDLNQIELIINSCGPGSFTGLRISLSFVKGLALGLSIPFVNISTLDVFANLVENNPSAVVLTFTAGKYFLGNYKNCKLIGKILCFSKKDLFEYLNQIDPNSVLIGNNLEDVCKECNYKFKIIENLSSFGKILTELGVAKYLKNRKGDDILSGPLYIRQSDAEVNFHSLEHHHHHH
  soluble on expression in E. coli: not soluble

## MRFLIPIIFTTLPLCLQAQEDPCASAPSEAAKIMCKQIHRWDDGARAASKKKKIALPPGMAKGMAAEFAPIASNIYQCMDLPCLCSYLRGTASGNGCTLPNGRPLQKSVRKEYRTLTDDERNRLHAAFRALKNNGEYERIGRIHSQMSAAGGAHSGPAFLPWHREFVKRVEFALRQVDPTVNLPYWDSTLDSRLPRPADTIMFSDYLMGSTGLVNDGPFTNWRTLAGRAQILRAVGAQGAPLSQNDIDFVMRQTQIDQVLSFTAPQQGCPYRTDFNCLEYTHGNVHIFVGGDMFDTATSSNDPSFFLHHAFIDFVWEEWRLARQSRADREIAFPPDNQLCASAQHFGASPMQPFSPMRNIDGLSNKYTDNLYSYAPRPTCQAGGDCGSKFLFCDTSTGAARCVSRIRPGSQCGQFRVNPCFSGICQNGVCVLSSTAPRPTPAPTTPTPQNPVQSQESCFNENQCCASWAASGECSRNTAYMNEWCKASCGVCKPKYRLADDCTDRHTQCSSWSRSGECTKNQLWMTENCRKSCNKCGRSRAQECGGGGTTVTTTTPAPAQQCDNSDGCFNENVCCAVWGLMGECRKNTRYMACNCRVSCGHCYPEDYNYGSCVDYHRSCAGWARVGECQKNPWMAENCRSSCNSCYTQSELRRMCGTTAGSVAPVAQVRQTNPSRQPPRGGWGRDDFGDNGGWGGNGGGGWGNNDPWGGSRWGGGRGGWGGGGWGGGGWGKRSIRAANASISMPSFDPDLL
  soluble on expression in E. coli: not soluble
